Assay: Stability of EVH1 mutant in aqueous solution
Assay type: physicochemical

B1: EVH1 Y39E: phosphomimetic Y39E mutant of human VASP EVH1 domain (protein)
chain: GPGGRMSSETVICSSRATVMLYDDGNKRWLPAGTGPQAFSRVQIEHNPTANSFRVVGRKMQPDQQVVINCAIVRGVKYNQATPNFHQWRDARQVWGLNFGSKEDAAQFAAGMASALEALEG
modifications: left off: His tag, end not stated, cleaved
  stability in aqueous solution: stable in aqueous solution

Source: PMC5724578 (Biochemistry, 2017)
